The record followed here is article PMC5148919, “Enhanced production of 2,3-butanediol by engineered Saccharomyces cerevisiae through fine-tuning of pyruvate decarboxylase and NADH oxidase activities” (Biotechnology for Biofuels, 2016).

For one series, the system named is T1, CtPdc1.
T1 construct: gene PDC1; full-length ORF from genomic DNA, TDH3 promoter multi-copy plasmid in Pdc-deficient S. cerevisiae SOS5; no tag mentioned; ORF ends NAAQE by primer
The experiment in a line: coupled ADH/NADH assay at […] nm, crude extract, Lineweaver-Burk. In kind it is cell-based, Candida viswanathii (printed as Candida tropicalis). To be noted: pH 6.5 imidazole, 30 °C, 5 mM MgCl2, 0.2 mM TPP, 0.4 mM NADH; pyruvate 1.56-100 mM.

Substrate in series [1]: CC(=O)C(=O)O
The experiment in a line: cells, lysate or membranes. Format: cell-based, Kluyveromyces marxianus. To be noted: pH 6.5 imidazole, 30 °C, 5 mM MgCl2, 0.2 mM TPP, 0.4 mM NADH, pyruvate 1.56-100 mM.

Substrate in series [2]: CC(=O)C(=O)O
The experiment in a line: cells, lysate or membranes. In kind it is cell-based, Saccharomyces cerevisiae. To be noted: pH 6.5 imidazole, 30 °C, 5 mM MgCl2, 0.2 mM TPP, 0.4 mM NADH, pyruvate 1.56-100 mM.

In the case of `CC(=O)C(=O)O` [pyruvate], the Michaelis constant (Km) in the series with CtPdc1 is 2.7 mM.

B1: K. marxianus Pdc1 (Kluyveromyces marxianus) (protein)
chain: MSEITLGRYLFERLKQVEVQTIFGLPGDFNLSLLDKIYEVPGMRWAGNANELNAAYAADGYARLKGMACVITTFGVGELSALNGIAGSYAEHVGVLHVVGVPSISSQAKQLLLHHTLGNGDFTVFHRMSSNISETTAMITDINSAPSEIDRCIRTTYISQRPVYLGLPANLVDLKVPASLLETPIDLSLKPNDPEAENEVLETVLELIKDAKNPVILADACCSRHNVKAETKKLIDITQFPAFVTPMGKGSIDEQHPRFGGVYVGTLSSPEVKEAVESADLVLSVGALLSDFNTGSFSYSYKTKNIVEFHSDYIKVRNATFPGVQMKFVLQKLLTKVKDAAKGYKPVPVPHAPRDNKPVADSTPLKQEWVWTQVGKFLQEGDVVLTETGTSAFGINQTHFPNDTYGISQVLWGSIGFTGGATLGAAFAAEEIDPKKRVILFIGDGSLQLTVQEISTMIRWGLKPYLFVLNNDGYTIERLIHGETAQYNCIQSWKHLDLLPTFGAKDYEAVRVATTGEWNKLTTDKKFQENSKIRLIEVMLPVMDAPSNLVKQAQLTASINAKQE
notes: full-length ORF from genomic DNA, TDH3 promoter multi-copy plasmid in Pdc-deficient S. cerevisiae SOS5; no tag mentioned; ORF ends NAKQE by primer
Turning to B1, in series [1], the Michaelis-Menten constant (Km) is on record as 7.7 mM.

B2: Pdc5 (Saccharomyces cerevisiae S288C) (protein)
chain: MSEITLGKYLFERLSQVNCNTVFGLPGDFNLSLLDKLYEVKGMRWAGNANELNAAYAADGYARIKGMSCIITTFGVGELSALNGIAGSYAEHVGVLHVVGVPSISSQAKQLLLHHTLGNGDFTVFHRMSANISETTAMITDIANAPAEIDRCIRTTYTTQRPVYLGLPANLVDLNVPAKLLETPIDLSLKPNDAEAEAEVVRTVVELIKDAKNPVILADACASRHDVKAETKKLMDLTQFPVYVTPMGKGAIDEQHPRYGGVYVGTLSRPEVKKAVESADLILSIGALLSDFNTGSFSYSYKTKNIVEFHSDHIKIRNATFPGVQMKFALQKLLDAIPEVVKDYKPVAVPARVPITKSTPANTPMKQEWMWNHLGNFLREGDIVIAETGTSAFGINQTTFPTDVYAIVQVLWGSIGFTVGALLGATMAAEELDPKKRVILFIGDGSLQLTVQEISTMIRWGLKPYIFVLNNNGYTIEKLIHGPHAEYNEIQGWDHLALLPTFGARNYETHRVATTGEWEKLTQDKDFQDNSKIRMIEVMLPVFDAPQNLVKQAQLTAATNAKQ
notes: full-length ORF from genomic DNA, TDH3 promoter multi-copy plasmid in Pdc-deficient S. cerevisiae SOS5; no tag mentioned
Turning to B2, the Km in series [2] is on record as 9.9 mM.

B3: ScPdc1 (Saccharomyces cerevisiae S288C) (protein)
chain: SEITLGKYLFERLKQVNVNTVFGLPGDFNLSLLDKIYEVEGMRWAGNANELNAAYAADGYARIKGMSCIITTFGVGELSALNGIAGSYAEHVGVLHVVGVPSISAQAKQLLLHHTLGNGDFTVFHRMSANISETTAMITDIATAPAEIDRCIRTTYVTQRPVYLGLPANLVDLNVPAKLLQTPIDMSLKPNDAESEKEVIDTILALVKDAKNPVILADACCSRHDVKAETKKLIDLTQFPAFVTPMGKGSIDEQHPRYGGVYVGTLSKPEVKEAVESADLILSVGALLSDFNTGSFSYSYKTKNIVEFHSDHMKIRNATFPGVQMKFVLQKLLTTIADAAKGYKPVAVPARTPANAAVPASTPLKQEWMWNQLGNFLQEGDVVIAETGTSAFGINQTTFPNNTYGISQVLWGSIGFTTGATLGAAFAAEEIDPKKRVILFIGDGSLQLTVQEISTMIRWGLKPYLFVLNNDGYTIEKLIHGPKAQYNEIQGWDHLSLLPTFGAKDYETHRVATTGEWDKLTQDKSFNDNSKIRMIEIMLPVFDAPQNLVEQAKLTAATNAKQ
notes: as for B2
As to B3, the Km in series [2] is reported as 4.7 mM.

B4: Pdc6 (Saccharomyces cerevisiae S288C) (protein)
chain: SEITLGKYLFERLKQVNVNTIFGLPGDFNLSLLDKIYEVDGLRWAGNANELNAAYAADGYARIKGLSVLVTTFGVGELSALNGIAGSYAEHVGVLHVVGVPSISAQAKQLLLHHTLGNGDFTVFHRMSANISETTSMITDIATAPSEIDRLIRTTFITQRPSYLGLPANLVDLKVPGSLLEKPIDLSLKPNDPEAEKEVIDTVLELIQNSKNPVILSDACASRHNVKKETQKLIDLTQFPAFVTPLGKGSIDEQHPRYGGVYVGTLSKQDVKQAVESADLILSVGALLSDFNTGSFSYSYKTKNVVEFHSDYVKVKNATFLGVQMKFALQNLLKVIPDVVKGYKSVPVPTKTPANKGVPASTPLKQEWLWNELSKFLQEGDVIISETGTSAFGINQTIFPKDAYGISQVLWGSIGFTTGATLGAAFAAEEIDPNKRVILFIGDGSLQLTVQEISTMIRWGLKPYLFVLNNDGYTIEKLIHGPHAEYNEIQTWDHLALLPAFGAKKYENHKIATTGEWDALTTDSEFQKNSVIRLIELKLPVFDAPESLIKQAQLTAATNAKQ
notes: as for B2
On to B4, for which the Michaelis-Menten constant (Km) in series [2] came out at 8.2 mM.
